Data set [1] deals with T1, IaaLPsf-3.
T1 construct: wild-type full-length ORF in pET28a, His6-tagged (C-terminal in methods, N-terminal in results), tag not cut, E. coli BL21
The data set is described as follows: coupled continuous spectrophotometric assay of AMP formation (myokinase/pyruvate kinase/lactate dehydrogenase, NADH at […] nm). Format: biochemical, Pseudomonas savastanoi. The settings on record: 1 mM ATP, 3 mM MgCl2, 100 mM KCl, 50 mM Tris-HCl pH 8.0, 25 °C.

For data set [2], the system named is O=C(O)Cc1c[nH]c2ccccc12. Nature of the data set: purified protein. The settings on record: 5 mM lysine fixed, IAA 0.05-10 mM, 1 mM ATP, 3 mM MgCl2, 100 mM KCl, 50 mM Tris-HCl pH 8.0, 25 °C.

On to `O=C(O)Cc1c[nH]c2ccccc12` [IAA], for which, in data set [1] (5 mM lysine fixed, IAA 0.05-10 mM), the Km stood at 836 ± 142 µM.
With `NCCCC[C@H](N)C(=O)O` [Lys], the Km in data set [1] (1 mM IAA fixed, lysine 0.01-10 mM) was determined as 320 ± 45 µM.
As for “IaaLPsn-1 (Pseudomonas savastanoi pv. nerii)”, in data set [2], the Km came out at 617 ± 158 µM, the Vmax is 0.0106 µmol/min/mg and the Vmax/Km was determined as 17.2 µL/min/mg.

The term Km denotes the substrate concentration at which the rate is half of its maximum. Broadly, the Vmax is the top rate of the reaction or transport when substrate is in excess.

The record behind these values is article PMC10280071, “Allelic variation in the indoleacetic acid-lysine synthase gene of the bacterial pathogen Pseudomonas savastanoi and its role in auxin production” (Frontiers in Plant Science, 2023).
